Reference: publication PMC4671291 (The Biochemical journal, 2011)

Biological target: the molecule itself
Assay: SEC

B1: Saccharomyces cerevisiae dUTP pyrophosphatase DUT1 (enzyme, S. cerevisiae)
chain: MTATSDKVLKIQLRSASATVPTKGSATAAGYDIYASQDITIPAMGQGMVSTDISFTVPVGTYGRIAPRSGLAVKNGIQTGAGVVDRDYTGEVKVVLFNHSQRDFAIKKGDRVAQLILEKIVDDAQIVVVDSLEESARGAGGFGSTGN
  stoichiometry N: 3
